# B1: Hepatic sodium/bile acid cotransporter (Homo sapiens) (protein)
# chain: MEAHNASAPFNFTLPPNFGKRPTDLALSVILVFMLFFIMLSLGCTMEFSKIKAHLWKPKGLAIALVAQYGIMPLTAFVLGKVFRLKNIEALAILVCGCSPGGNLSNVFSLAMKGDMNLSIVMTTCSTFCALGMMPLLLYIYSRGIYDGDLKDKVPYKGIVISLVLVLIPCTIGIVLKSKRPQYMRYVIKGGMIIILLCSVAVTVLSAINVGKSIMFAMTPLLIATSSLMPFIGFLLGYVLSALFCLNGRCRRTVSMETGCQNVQLCSTILNVAFPPEVIGPLFFFPLLYMIFQLGEGLLLIAIFWCYEKFKTPKDKTKMIYTAATTEETIPGALGNGTYKGEDCSPCTA
# Substrate: [H][C@]12CC[C@]3([H])[C@]([H])(C[C@H](O)[C@]4(C)C(C(C)CCC(=O)NCCS(=O)(=O)O)CC[C@@]34[H])[C@@]1(C)CC[C@H](OCCNC(=O)CCCc1ccc(N(CCCl)CCCl)cc1)C2
# Assay: TP_TRANSPORTER: uptake in Xenopus laevis oocytes
# Assay type: functional, cell-based, Oocyte
protein,measurement,value
B1,Km,11 µM
